Test results as given in patent US11045560B2, “Therapeutic conjugates with sulfated dendrimers for intracellular targeting” (IC DISCOVERY GMBH, priority 2014, dated 2021).
No end group written: not given here. d02 = not defined here

Assays:
[1] = tested on: HT29, HepG2, QGP-1, A431, MCF-7, A2780; assay: Inhibition of cell proliferation measured by MTT test; format: cell-based, human
[2] = tested on: HT29, HepG2, QGP-1, A431, MCF-7, A2780; settings: for % uptake: FACS, relative to ICC-d01, range from different cell lines, incubation 24 h, conjugates additionally ICC-labeled, fluorescence-corrected
Method: The human cancer cell lines A2780 and QGP-1 are cultured in RPMI medium, with 10% fetal calf serum (FCS), 2% glutamine, and penicillin/streptomycin added. All cells are seeded into medium at 1×10^5 cells/ml, cultured at 37° C. with 5% CO2, and split 1:5 two times a week. The epithelial human cancer cell lines A549, MCF7, HaCaT, and HepG2 are propagated in DMEM medium (PAN Biotech), with 10% fetal FCS, 2% glutamine, and penicillin/streptomycin. Cells are seeded into medium at 1×10^5 cells/ml (37° C. with 5% CO2, split 1:5 two times a week). HT29 cells are cultured in McCoy's medium (PAN biotech), with 10% FCS), 2% glutamine, and penicillin/streptomycin. Cells are seeded into medium at 1×10^5 cells/ml (37° C. with 5% CO2, split 1:10 two times a week). […] Afterwards, cells are fixed with cold acetone, rinsed and covered with 4,6-diamidino-2-phenylindole (DAPI, Abcam) for nuclear counterstain. Image acquisition is performed using a Leica DMRB microscope (Leica). Images are taken with a digital camera (Spot 32, Diagnostic Instruments) with the same exposure time for all pictures. […] This amount and time is sufficient to measure the supernatant after pooling and cell lysis with DMSO.
For FACS studies, 2×10^5 cells/ml cells are cultured in 24-well plates with normal culture medium or medium containing different concentrations of test substances for 3 or 24 hours. Thereafter, cells are washed with PBS and detached with 200 μl/well accutase (PAA) and washed two times with PBS. Cells are fixed with 500 μl 3% paraformaldehyde for 10 min at 4° C., stopped with 2 ml PBS and centrifuged with 250×g, for 10 min at 4° C. Supernatants are removed and cells were suspended in 200 μl PBS with 0.5% bovine serum albumin (Roth).
Fixed cells are kept at 4° C. until analysis in a FACS Calibur instrument (Becton-Dickinson).

[3] = tested on: HT29, HepG2, QGP-1, MCF-7; assay: Inhibition of cell proliferation by MTT test, comparison to sulfated polymer; format: cell-based, human; settings: range from 4 cell lines (Table 8)
Method: For cytotoxicty measurements, 2×10^5 cells were incubated with 1 ml culture medium containing increasing concentrations of test substances. After 72 hs treatment, cell number, viability and cell diameter as parameter of apoptotic processes were analyzed in a cell counter and analyzer system (CASY®, Schärfe Systems). In addition, drug cytotoxicity was assessed in vitro using the MTT assay (cellular reduction of 3-(4,5-dimethylthiazol-2-yl)-2,5-diphenyltetrazolium bromide) as a test for metabolic activity of the cells. 1×10^4 cells per well were seeded in 96-well plates in 100 μl culture medium containing increasing concentration of the test substance. 10 μl MTT (5 mg/ml in PBS, obtained from Sigma) was added to each well and the plates were incubated for 4 hrs, 24 hrs, 48 hrs or up to 72 h. The resulting formazan product was dissolved with acid isopropanol and the absorbance at a wavelength of 570 nm (Ex570) was read on a Microplate Spectrophotometer (Anthos htII, Microsystems). In a couple of experiments, medium with test substances was removed after 48 hs, cells were counted and identical cell numbers with new medium without test substances were seeded in new plates. MTT assay was performed after further incubation for 72 hours.
This polymer is functionalized with the linker maleimido-PEG(4)-COOH NHS ester as described in example 2a, and further purified via RP chromatography. […]

QGP-1 tumor cells = assay: Uptake into QGP-1 cells by FACS in presence of genistein or rifamycin; format: cell-based, human; settings: for uptake +genistein (%) / uptake +rifamycin (%): relative to without inhibitor; for uptake w/o inhibitor (%): without inhibitor defined as 100%
Method: Studies on cellular uptake measured by FACS were conducted as described in example 13. Compound Asp-d13 is incubated at a concentration of 10^−7 M in QGP-1 tumor cells for 3 h and 6 h. Incubation is done in the presence of one of the following two substrates: (1) 0.1 mM genistein, an inhibitor for endocytotic uptake (Rejman et al., Mol. Ther. 2005, 12, 468-474) or (2) 50 mM rifamycin, an inhibitor of uptake via organic anion transporter proteins (OATP; Bi et al., Drug Metab Dispos. 2012, 40, 1085-92).

[4] = range from different cell lines (Table 6)
[5] = range from different cell lines, peptide-dendrimer conjugates (Table 7)

Molecule | IC50 [1, 4] [nM] | % uptake [2] | IC50 [1, 5] [nM] | further results
saporin | > 1000 | 5-8% |  | IC50 [3]: > 1000 nM
d02-P1: peptide P1 conjugated to maleimido dendrimer d02 (CGMRPEIWIAQELRRIGDEFNA; conjugated to maleimido dendrimer d02; BIM) |  |  | 900 to 2100 | 
DNase | > 2000 | 4-12% |  | 
d02-P6: peptide P6 conjugated to maleimido dendrimer d02 (C(d02)GEDIIRNIARHAAQVGASADRSI-NH2; reading uncertain; also: conjugated via N-terminal Cys thiol to maleimido dendrimer d02) |  |  | 1200 to 2300 | 
d02-P5: peptide P5 conjugated to maleimido dendrimer d02 (C(d02)GEEQWAREIGAQLRRMADDLNAQYER-NH2; reading uncertain; also: conjugated via N-terminal Cys thiol to maleimido dendrimer d02) |  |  | 800 to 2000 | 
Diphtheria toxin | > 500 | 8-10% |  | 
L-asparaginase (protein, UniProt P00805 23-348, looked up, enzyme, homotetramer of 4 units of 34 kDa (L-asparaginase 5000E, Medac), without dendrimer) L-asparaginase 2: LPNITILATGGTIAGGGDSATKSNYTVGKVGVENLVNAVPQLKDIANVKGEQVVNIGSQDMNDNVWLTLAKKINTDCDKTDGFVITHGTDTMEETAYFLDLTVKCDKPVVMVGAMRPSTSMSADGPFNLYNAVVTAADKASANRGVLVVMNDTVLDGRDVTKTNTTDVATFKSVNYGPLGYIHNGKIDYQRTPARKHTSDTPFDVSKLNELPKVGIVYNYANASDLPAKALVDAGYDGIVSAGVGNGNLYKSVFDTLATAAKTGTAVVRSSRVPTGATTQDAEVDDAKYGFVASGTLNPQKARVLLQLALTQTKDPQQIQQIFNQY | > 1500 | 4-7% |  | uptake into tumor cells ([2]; in words, referring to example 15): do not show uptake into tumor cells
Asp-polyglycerolsulfate: L-asparaginase coupled to a polyglycerolsulfate, mean molecular weight 12000 Da, according to WO2011/095311 (conjugate, UniProt P00805 23-348, looked up, polyglycerolsulfate conjugate, 12000 Da) L-asparaginase 2: LPNITILATGGTIAGGGDSATKSNYTVGKVGVENLVNAVPQLKDIANVKGEQVVNIGSQDMNDNVWLTLAKKINTDCDKTDGFVITHGTDTMEETAYFLDLTVKCDKPVVMVGAMRPSTSMSADGPFNLYNAVVTAADKASANRGVLVVMNDTVLDGRDVTKTNTTDVATFKSVNYGPLGYIHNGKIDYQRTPARKHTSDTPFDVSKLNELPKVGIVYNYANASDLPAKALVDAGYDGIVSAGVGNGNLYKSVFDTLATAAKTGTAVVRSSRVPTGATTQDAEVDDAKYGFVASGTLNPQKARVLLQLALTQTKDPQQIQQIFNQY |  |  |  | uptake +genistein (%) (QGP-1 tumor cells; 3 h, 0.1 mM genistein): 50%; uptake +rifamycin (%) (QGP-1 tumor cells; 3 h, 50 mM rifamycin): 76%; uptake w/o inhibitor (%) (QGP-1 tumor cells; 3 h): 100%; uptake +genistein (%) (QGP-1 tumor cells; 6 h, 0.1 mM genistein): 55%; uptake +rifamycin (%) (QGP-1 tumor cells; 6 h, 50 mM rifamycin): 72%; uptake w/o inhibitor (%) (QGP-1 tumor cells; 6 h): 100%; dependency of uptake on endocytosis (QGP-1 tumor cells; inhibition by genistein, in words): endocytosis could be identified due to inhibition by genistein
Asp-d13: L-asparaginase conjugated with maleimido dendrimer d13 (conjugate, UniProt P00805 23-348, looked up, maleimido dendrimer d13 conjugate) L-asparaginase 2: LPNITILATGGTIAGGGDSATKSNYTVGKVGVENLVNAVPQLKDIANVKGEQVVNIGSQDMNDNVWLTLAKKINTDCDKTDGFVITHGTDTMEETAYFLDLTVKCDKPVVMVGAMRPSTSMSADGPFNLYNAVVTAADKASANRGVLVVMNDTVLDGRDVTKTNTTDVATFKSVNYGPLGYIHNGKIDYQRTPARKHTSDTPFDVSKLNELPKVGIVYNYANASDLPAKALVDAGYDGIVSAGVGNGNLYKSVFDTLATAAKTGTAVVRSSRVPTGATTQDAEVDDAKYGFVASGTLNPQKARVLLQLALTQTKDPQQIQQIFNQY | 10 to 20 |  |  | FACS signal in the presence of genistein relative to without inhibitor (QGP-1 tumor cells; 10^−7 M, 3 h and 6 h, 0.1 mM genistein): 80-85%; FACS signal in the presence of rifamycin relative to without inhibitor (QGP-1 tumor cells; 10^−7 M, 3 h and 6 h, 50 mM rifamycin): 37-40%
